This note sets out measurements from the supplement of paper PMC7877785.

This data set is described as follows: self-splicing fitness, log relative to wild type (ln ratio); higher = more splicing; Tetrahymena group I intron in knt gene, E. coli kanamycin selection, DiMSum; sequences stand for … in CUCUCU…GGAGGGAAAAGUUAUCAGGCAUGCACCUGGUAGCUAGUCUUUAAACCAAUAGAUUGCAUCGGUUUAAAAGGCAAGACCGUCAAAUUGCGGGAAAGGGGUCAACAGCCGUUCAGUACCAAGUCUCAGGGGAAACUUUGAGAUGGCCUUGCAAAGGGUAUGGUAAUAAGCUGACGGACAUGGUCCUAACCACGCAGCCAAGUCCUAAGUCAACAGAUCUUCUGUUGAUAUGGAUGCAGUUCACAGACUAAAUGUCGGUCGGGGAAGAUGUAUUCUUCUCAUAAGAUAUAGUCGGACCUCUCCUUAAUGGGAGCUAGCGGAUGAAGUGAUGCAACACUGGAGCCGCUGGGAACUAAUUUGUAUGCGAAAGUAUAUUGAUUAGUUUUGGAGUACUCGUGGUCG
In short, it runs like this: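 Six replicate transformations of E. coli BL21(DE3) with a pET-22b(+) library were grown overnight at 37°C or 30°C. The library randomised all eight P1ex-region intron nucleotides, the intron lying in the knt kanamycin-resistance gene, and plates were LB agar with or without 25 μg/mL kanamycin plus 100 μg/mL carbenicillin, 50 μM IPTG and 0.2% rhamnose. Pooled colonies were amplicon-sequenced on an Illumina HiSeq 2500, and fitness is the DiMSum error-weighted combination of wild-type-normalised replicate fold changes, kanamycin versus none.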

± gives the uncertainty stated by the source.

Take UGUCAGCAAUAUUACGCUAG: the “self-splicing fitness (ln)” value (30 °C) was -0.41 ± 0.061 and the “self-splicing fitness (ln)” value (37 °C) was -0.214 ± 0.077.

Consider UCGUAGCAAUAUUACGGUGU, for which the “self-splicing fitness (ln)” value was -3.09 ± 0.13 (30 °C) and -2.7 ± 0.19 (37 °C). For ACCGAGCAAUAUUACGAACG, in that order: -2.36 ± 0.2 and -0.527 ± 0.22. For the sequence UGUCAGCAAUAUUACGAGAA, the “self-splicing fitness (ln)” value (30 °C) was -1.43 ± 0.27 and the “self-splicing fitness (ln)” value (37 °C) is -1.48 ± 0.22. As for CAAUAGCAAUAUUACGCCAU, the “self-splicing fitness (ln)” value by setting is: (30 °C) -3.21 ± 0.34; (37 °C) -2.43 ± 0.26. In the case of AUGGAGCAAUAUUACGGAAC, the “self-splicing fitness (ln)” value (37 °C) was -1.21 ± 0.42. For the sequence GUCAAGCAAUAUUACGCUCG, the “self-splicing fitness (ln)” value runs as follows: (30 °C) -2.95 ± 0.14; (37 °C) -1.18 ± 0.12. For the sequence AUAAAGCAAUAUUACGUUAC, the “self-splicing fitness (ln)” value is -2.55 ± 0.13 (30 °C) and -0.574 ± 0.12 (37 °C). Regarding UCUGAGCAAUAUUACGUAAU, the “self-splicing fitness (ln)” value reads like this: (30 °C) -3.33 ± 0.23; (37 °C) -2.12 ± 0.29. As to UAAUAGCAAUAUUACGCACU, the “self-splicing fitness (ln)” value was -1.16 ± 0.11 (30 °C) and -1.02 ± 0.12 (37 °C). For GAUGAGCAAUAUUACGGCCA, in that order: -2.11 ± 0.44 and -0.871 ± 0.24. For AUUAAGCAAUAUUACGCUAC, in that order: -2.45 ± 0.43 and -3.4 ± 0.35.

For UGCUAGCAAUAUUACGAAAC, the “self-splicing fitness (ln)” value by setting is: (30 °C) -2.87 ± 0.33; (37 °C) -2.17 ± 0.31. GAUUAGCAAUAUUACGCAGC: the “self-splicing fitness (ln)” value (30 °C) is -2.35 ± 0.31. On to ACAUAGCAAUAUUACGUCAA, for which the “self-splicing fitness (ln)” value runs as follows: (30 °C) -3.99 ± 0.21; (37 °C) -1.63 ± 0.11. Consider UGCAAGCAAUAUUACGGACG, for which the “self-splicing fitness (ln)” value (30 °C) was -0.345 ± 0.068 and the “self-splicing fitness (ln)” value (37 °C) was -0.0664 ± 0.087. As for ACACAGCAAUAUUACGCCGG, the “self-splicing fitness (ln)” value runs as follows: (30 °C) -1.36 ± 0.09; (37 °C) -0.466 ± 0.11. In the case of CUUCAGCAAUAUUACGCCAA, the “self-splicing fitness (ln)” value (37 °C) is -2.31 ± 0.48. AGAGAGCAAUAUUACGAGUC: the “self-splicing fitness (ln)” value (37 °C) was -2.23 ± 0.29. Consider GGAUAGCAAUAUUACGGUCC, for which the “self-splicing fitness (ln)” value (37 °C) was -2.68 ± 0.48. On to CUACAGCAAUAUUACGCAGU, for which the “self-splicing fitness (ln)” value reads like this: (30 °C) -3.78 ± 0.24; (37 °C) -2.32 ± 0.22. With UUGCAGCAAUAUUACGUAGA, the “self-splicing fitness (ln)” value was -1.46 ± 0.074 (30 °C) and -0.271 ± 0.079 (37 °C). For the sequence AUAGAGCAAUAUUACGGCCC, the “self-splicing fitness (ln)” value is, setting by setting: (30 °C) -1.68 ± 0.17; (37 °C) -0.799 ± 0.3. For the sequence CCGGAGCAAUAUUACGUCCU, the “self-splicing fitness (ln)” value by setting is: (30 °C) -4.9 ± 0.31; (37 °C) -2.29 ± 0.16. Take ACGUAGCAAUAUUACGAAAU: the “self-splicing fitness (ln)” value (30 °C) is -2.28 ± 0.19 and the “self-splicing fitness (ln)” value (37 °C) is -1.3 ± 0.26. For CCGAAGCAAUAUUACGAGGA, in that order: -4.32 ± 0.39 and -2.54 ± 0.21.

Regarding AGAUAGCAAUAUUACGUAAU, the “self-splicing fitness (ln)” value runs as follows: (30 °C) -1.52 ± 0.11; (37 °C) -0.657 ± 0.12. As to AGUUAGCAAUAUUACGUUAA, the “self-splicing fitness (ln)” value was -3.56 ± 0.38 (30 °C) and -1.48 ± 0.26 (37 °C).

On to CGGCAGCAAUAUUACGCUUA, for which the “self-splicing fitness (ln)” value is -0.963 ± 0.071 (30 °C) and -0.184 ± 0.073 (37 °C). As to GAUAAGCAAUAUUACGCUGA, the “self-splicing fitness (ln)” value (37 °C) is -1.31 ± 0.22. Consider CUGUAGCAAUAUUACGGUUA, for which the “self-splicing fitness (ln)” value by setting is: (30 °C) -2.17 ± 0.24; (37 °C) -2.58 ± 0.36. As for UGGGAGCAAUAUUACGUGUA, where the note is “37 °C”, the “self-splicing fitness (ln)” value is -2.2 ± 0.26. CCUGAGCAAUAUUACGGACU: the “self-splicing fitness (ln)” value by setting is: (30 °C) -1.55 ± 0.13; (37 °C) -3.3 ± 0.32. In the case of CGGCAGCAAUAUUACGACAU, the “self-splicing fitness (ln)” value is, setting by setting: (30 °C) -3.303 ± 0.021; (37 °C) -1.91 ± 0.035. Turning to AGCGAGCAAUAUUACGGGUG, the “self-splicing fitness (ln)” value by setting is: (30 °C) -2.75 ± 0.24; (37 °C) -1.21 ± 0.21. For the sequence GCGUAGCAAUAUUACGCGCG, the “self-splicing fitness (ln)” value is -3.2 ± 0.26 (30 °C) and -2.42 ± 0.31 (37 °C).

Consider GGAAAGCAAUAUUACGAGAA, for which, under “37 °C”, the “self-splicing fitness (ln)” value is -1.29 ± 0.27. Take UAAAAGCAAUAUUACGACAA: the “self-splicing fitness (ln)” value runs as follows: (30 °C) -0.243 ± 0.1; (37 °C) 0.272 ± 0.11.

Regarding UAGCAGCAAUAUUACGUCGC, the “self-splicing fitness (ln)” value is -4.47 ± 0.24 (30 °C) and -2.73 ± 0.22 (37 °C).

AUAAAGCAAUAUUACGCUUG: the “self-splicing fitness (ln)” value is, setting by setting: (30 °C) -0.77 ± 0.082; (37 °C) -0.368 ± 0.11.
